Laboratory results published in patent US20200024330A1.

Assays:
Assay in all cases: cell-based or functional assay
[1] = target: HIV-1 Env of isolate MGRM-G-015 (HIV-1)
[2] = target: HIV-1 Env of isolate MGRM-G-016 (HIV-1)
[3] = target: HIV-1 Env of isolate MGRM-Chronic-B-023 (HIV-1)
[4] = target: HIV-1 Env of isolate MGRM-F1-013 (subtype F), on pseudovirus (HIV-1)
[5] = target: HIV-1 Env of isolate MGRM-G-009 (HIV-1)
[6] = target: HIV-1 Env of isolate MGRM-G-013 (HIV-1)
[7] = target: HIV-1 Env of isolate JRFL (HIV-1)
[8] = target: HIV-1 Env of isolate MGRM-G-017 (HIV-1)
[9] = target: HIV-1 Env of isolate MGRM-Chronic-B-024 (HIV-1)
[10] = target: HIV-1 Env of isolate MGRM-Chronic-B-017 (HIV-1)
[11] = target: HIV-1 Env of isolate MGRM-Chronic-B-011 (HIV-1)
[12] = target: HIV-1 Env of isolate MGRM-Chronic-B-020 (HIV-1)
[13] = target: HIV-1 Env of isolate MGRM-G-006 (HIV-1)
[14] = target: HIV-1 Env of isolate MGRM-Chronic-B-018 (HIV-1)
[15] = target: HIV-1 Env of isolate MGRM-G-001 (HIV-1)
[16] = target: HIV-1 Env of isolate MGRM-G-019 (HIV-1)
[17] = target: HIV-1 Env of isolate MGRM-Chronic-B-012 (HIV-1)
[18] = target: HIV-1 Env of isolate MGRM-G-004 (HIV-1)
[19] = target: HIV-1 Env of isolate MGRM-G-014 (HIV-1)
[20] = target: aMLV envelope (negative control pseudovirus)
[21] = target: HIV-1 Env of isolate MGRM-G-011 (HIV-1)
[22] = target: HIV-1 Env of isolate MGRM-G-027 (HIV-1)
[23] = target: HIV-1 Env of isolate MGRM-Chronic-B-010 (HIV-1)
[24] = target: HIV-1 92BR020 envelope glycoprotein (Env) on pseudovirus (HIV-1)
[25] = target: HIV-1 92RW020 envelope glycoprotein (Env) on pseudovirus (HIV-1)

Chain of 5329_C19 (PGT-136) (antibody) (VH): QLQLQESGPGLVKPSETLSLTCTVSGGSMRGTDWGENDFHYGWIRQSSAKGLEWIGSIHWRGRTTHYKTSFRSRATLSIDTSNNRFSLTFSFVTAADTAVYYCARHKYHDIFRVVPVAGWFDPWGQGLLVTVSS
Chain of 5329_C19 (PGT-136) (antibody) (VL): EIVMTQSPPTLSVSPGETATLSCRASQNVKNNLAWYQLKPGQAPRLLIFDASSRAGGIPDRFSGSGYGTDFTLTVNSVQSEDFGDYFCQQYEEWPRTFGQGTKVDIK

Substance	IC50, pseudovirus neutralization [1]	IC50, pseudovirus neutralization [2]	IC50 [3]	IC50, pseudovirus neutralization [4]	IC50, pseudovirus neutralization [5]	IC50, pseudovirus neutralization [6]	IC50 [7]	IC50, pseudovirus neutralization [8]	IC50 [9]	IC50 [10]	IC50 [11]	IC50 [12]	IC50, pseudovirus neutralization [13]	IC50 [14]	IC50, pseudovirus neutralization [15]	IC50, pseudovirus neutralization [16]	IC50 [17]	IC50, pseudovirus neutralization [18]	IC50, pseudovirus neutralization [19]	IC50, pseudovirus neutralization [20]	further results
5136_H01 (PGT-131) (antibody)	> 50 µg/mL	> 50 µg/mL	> 50 µg/mL	> 50 µg/mL	> 50 µg/mL	> 50 µg/mL	0.454 µg/mL	> 50 µg/mL	> 50 µg/mL	> 50 µg/mL	6.47 µg/mL	0.053 µg/mL	> 50 µg/mL	> 50 µg/mL	0.404 µg/mL	> 50 µg/mL	15.7 µg/mL	> 50 µg/mL	4.31 µg/mL	> 50 µg/mL	IC50, pseudovirus neutralization [21]: > 50 µg/mL; IC50, pseudovirus neutralization [22]: 2.9 µg/mL; IC50 [23]: 0.016 µg/mL
5114_A19 (PGT-128) (antibody)	> 50 µg/mL	> 50 µg/mL	> 50 µg/mL	12.7 µg/mL	> 50 µg/mL	0.995 µg/mL	0.007 µg/mL	0.319 µg/mL	> 50 µg/mL	> 50 µg/mL	0.02 µg/mL	0.007 µg/mL	> 50 µg/mL	0.02 µg/mL	0.019 µg/mL	0.01 µg/mL	0.026 µg/mL	> 50 µg/mL	0.004 µg/mL	> 50 µg/mL	IC50, pseudovirus neutralization [21]: 8.21 µg/mL; IC50, pseudovirus neutralization [22]: 0.313 µg/mL; IC50 [23]: 0.004 µg/mL
5343_B08 (PGT-135) (antibody)	> 50 µg/mL	> 50 µg/mL	0.329 µg/mL	21.1 µg/mL	> 50 µg/mL	> 50 µg/mL	> 50 µg/mL	0.137 µg/mL	> 50 µg/mL	> 50 µg/mL	> 50 µg/mL	0.057 µg/mL	> 50 µg/mL	> 50 µg/mL	0.393 µg/mL	0.145 µg/mL	0.166 µg/mL	> 50 µg/mL	> 50 µg/mL	> 50 µg/mL	IC50 (ug/ml), neutralizing activity [24]: 0.104 µg/mL; IC50 (ug/ml), neutralizing activity [25]: 0.157 µg/mL; IC50, pseudovirus neutralization [21]: > 50 µg/mL; IC50, pseudovirus neutralization [22]: 0.062 µg/mL; IC50 [23]: > 50 µg/mL
5329_C19 (PGT-136) (antibody)	> 50 µg/mL	> 50 µg/mL	> 50 µg/mL	> 50 µg/mL	> 50 µg/mL	> 50 µg/mL	> 50 µg/mL	> 50 µg/mL	> 50 µg/mL	> 50 µg/mL	> 50 µg/mL	> 50 µg/mL	> 50 µg/mL	> 50 µg/mL	8.11 µg/mL	44.3 µg/mL	43.1 µg/mL	> 50 µg/mL	> 50 µg/mL	> 50 µg/mL	IC50 (ug/ml), neutralizing activity [24]: > 10 µg/mL; IC50 (ug/ml), neutralizing activity [25]: 0.738 µg/mL; IC50, pseudovirus neutralization [21]: > 50 µg/mL; IC50, pseudovirus neutralization [22]: 45.2 µg/mL; IC50 [23]: > 50 µg/mL
